The target of this test is T1, Soluble human HER3 extracellular domain fused to Streptavidin Binding Protein (SBP) (human, UniProt P21860 20-643).
T1 construct: Order of the parts follows the printed name SBP-HER3 and is not otherwise stated; Used as HEK293 supernatant captured on streptavidin plates; also called SBP-HER3
Put plainly: ELISA, SBP-HER3 ECD captured on streptavidin plate; antibody concentration read from HER3 binding. On the technique in general: In an ELISA, binding on a coated surface is turned into a signal by an enzyme label.

Numbering of substitutions follows the chain as printed.

Experimental: Soluble human HER3 extracellular domain fused to Streptavidin Binding Protein (SBP) was captured on a sreptavidine plate. […] For the standard coating, SBP-HER3 containing HEK293 supernatant was diluted (between 1:15 and 1:40) and incubated overnight at 2-80 C (25 μl per well). Intensive washing of the microtiter plate is necessary to remove remaining unbound SBP-HER3.
Antibodies according to the invention antibody were tested either undiluted or using a 12-step-dilution. 12.5 μl per well of each sample was incubated for 90 min at room temperature.

B1: Mab 205.10.1 (antibody, V domains shown)
VH: QVQLVQSGAEVKKPGASVKVSCKASGYTFRSSYISWVRQAPGQGLEWMGWIYAGTGSPSYNQKLQGRVTMTTDTSTSTAYMELRSLRSDDTAVYYCARHRDYYSNSLTYWGQGTLVTVSS
VL: DIVMTQSPDSLAVSLGERATINCKSSQSLLNSGNQKNYLTWYQQKPGQPPKLLIYWASTRESGVPDRFSGSGSGTDFTLTISSLQAEDVAVYYCQSDYSYPYTFGQGTKLEIK
notes: Humanized anti-HER3 antibody; Only variable domains are tied to it
In the case of B1, the “hu_HER3-ECD-ELISA c(µg/ml)” value was found to be 583 µg/mL.

B2: Mab 205.10.3 (antibody, V domains shown)
VH: B1 VH
VL: B1 VL with A90S, V91I
notes: as for B1
B2: the “hu_HER3-ECD-ELISA c(µg/ml)” value worked out at 505 µg/mL.
